Results: IntAct's records for PubMed 21293379

Target: nsd2_human NSD2 (UniProt O96028)
UniProt O96028, sequence (O96028 whole entry): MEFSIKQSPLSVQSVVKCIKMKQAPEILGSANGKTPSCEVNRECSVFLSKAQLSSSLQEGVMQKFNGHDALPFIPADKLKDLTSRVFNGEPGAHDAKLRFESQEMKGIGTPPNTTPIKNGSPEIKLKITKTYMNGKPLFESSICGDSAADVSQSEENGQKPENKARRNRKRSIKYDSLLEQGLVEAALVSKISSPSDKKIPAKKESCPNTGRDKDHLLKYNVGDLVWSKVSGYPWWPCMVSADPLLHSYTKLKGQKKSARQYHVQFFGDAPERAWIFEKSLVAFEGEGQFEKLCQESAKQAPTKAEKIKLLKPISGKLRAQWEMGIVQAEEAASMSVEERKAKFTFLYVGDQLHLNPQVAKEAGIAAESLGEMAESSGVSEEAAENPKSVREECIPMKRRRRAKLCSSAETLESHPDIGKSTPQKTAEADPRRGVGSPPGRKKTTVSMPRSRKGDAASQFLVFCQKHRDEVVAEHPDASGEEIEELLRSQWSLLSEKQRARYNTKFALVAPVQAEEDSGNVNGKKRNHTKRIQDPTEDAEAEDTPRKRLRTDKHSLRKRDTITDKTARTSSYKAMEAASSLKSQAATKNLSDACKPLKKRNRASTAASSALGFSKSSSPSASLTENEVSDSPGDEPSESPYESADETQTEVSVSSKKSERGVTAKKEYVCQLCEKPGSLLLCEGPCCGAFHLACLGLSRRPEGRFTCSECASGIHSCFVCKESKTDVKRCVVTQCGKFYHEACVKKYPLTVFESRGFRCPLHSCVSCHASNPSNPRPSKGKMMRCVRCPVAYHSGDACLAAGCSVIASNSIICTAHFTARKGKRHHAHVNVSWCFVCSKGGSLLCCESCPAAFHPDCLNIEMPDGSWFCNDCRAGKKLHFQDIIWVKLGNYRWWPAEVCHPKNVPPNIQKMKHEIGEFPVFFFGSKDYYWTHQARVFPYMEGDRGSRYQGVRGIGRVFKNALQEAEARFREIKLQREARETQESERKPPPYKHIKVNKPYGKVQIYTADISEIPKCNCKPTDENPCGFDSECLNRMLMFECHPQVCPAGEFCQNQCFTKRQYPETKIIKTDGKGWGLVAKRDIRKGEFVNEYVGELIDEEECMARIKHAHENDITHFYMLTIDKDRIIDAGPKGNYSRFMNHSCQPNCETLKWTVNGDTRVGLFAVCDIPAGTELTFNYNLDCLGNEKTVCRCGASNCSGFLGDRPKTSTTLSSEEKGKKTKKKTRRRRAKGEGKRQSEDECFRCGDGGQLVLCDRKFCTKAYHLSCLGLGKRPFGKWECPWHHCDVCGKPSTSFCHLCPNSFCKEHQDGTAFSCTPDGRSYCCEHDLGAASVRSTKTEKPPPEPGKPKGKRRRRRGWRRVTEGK

effect of a mutation on the interaction: disrupting interaction
Substance: Mediator of DNA damage checkpoint protein 1 (Homo sapiens), Q14676 K1936M
